T1: soluble recombinant cynomolgus TCR alpha/beta-zipper protein (cynomolgus/rhesus monkey)
T1 construct: Made in house in CHOK1SV cells; extracellular domains fused to a zipper protein; also called cynoTCR-zipper protein; not shown: zipper protein (O'Shea et al. 1993)
T1 V domain 1: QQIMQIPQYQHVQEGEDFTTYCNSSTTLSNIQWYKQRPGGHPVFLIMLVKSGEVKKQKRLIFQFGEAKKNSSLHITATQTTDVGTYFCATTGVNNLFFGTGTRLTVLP
T1 V domain 2: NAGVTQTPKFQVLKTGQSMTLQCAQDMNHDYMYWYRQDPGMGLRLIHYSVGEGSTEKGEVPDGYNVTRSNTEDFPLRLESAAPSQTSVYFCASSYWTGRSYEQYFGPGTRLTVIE

T2: T cell receptor alpha/beta on purified primary human T cells (human, UniProt P01848 1-140; P01850 1-176)
T2 construct: whole, on cells; also called human primary T cells
T2 TCR alpha (looked up): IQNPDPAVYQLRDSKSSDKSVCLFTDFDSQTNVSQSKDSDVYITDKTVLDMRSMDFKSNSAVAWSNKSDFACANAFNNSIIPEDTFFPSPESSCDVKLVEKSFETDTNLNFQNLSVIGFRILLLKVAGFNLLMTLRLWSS
T2 TCR beta (looked up): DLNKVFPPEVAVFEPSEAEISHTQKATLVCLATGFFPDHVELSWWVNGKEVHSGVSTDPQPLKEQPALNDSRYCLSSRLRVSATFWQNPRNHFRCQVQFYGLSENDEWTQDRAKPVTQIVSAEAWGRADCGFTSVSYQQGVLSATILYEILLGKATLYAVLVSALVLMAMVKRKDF


Assays:
EGFR on cells [1] = target: T3, EGFR on cells (UniProt P00533 25-1210, limits assumed); assay: cell-based or functional assay
EGFR on cells [2] = target: T3, EGFR on cells; assay: cell-based or functional assay; remark: listed apart in the source
EGFR on cells [3] = target: T3, EGFR on cells; assay: flow cytometry, LoVo cells; design: Top: unit not given here
EGFR on cells [4] = target: T3, EGFR on cells; assay: flow cytometry, HER14 cells
EGFR on cells [5] = target: T3, EGFR on cells; assay: flow cytometry, LS174T cells; design: Top: unit not given here
[6] = target: T4, human CD3 expressed on HEK293H cells (human, UniProt P04234 22-171; P09693 23-182; P07766 23-207; P20963 22-164); assay: flow cytometry, HEK293H human CD3 cells
T4 construct: also called HEK293H human CD3; HEK293H CD3
T4 sequence (P04234 22-171 limits assumed, chain 1 of 4): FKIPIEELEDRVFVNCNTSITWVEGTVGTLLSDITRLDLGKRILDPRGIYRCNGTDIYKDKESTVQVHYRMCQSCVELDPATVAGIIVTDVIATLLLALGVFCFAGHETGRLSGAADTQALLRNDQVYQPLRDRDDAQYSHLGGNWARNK
T4 sequence (P09693 23-182 limits assumed, chain 2 of 4): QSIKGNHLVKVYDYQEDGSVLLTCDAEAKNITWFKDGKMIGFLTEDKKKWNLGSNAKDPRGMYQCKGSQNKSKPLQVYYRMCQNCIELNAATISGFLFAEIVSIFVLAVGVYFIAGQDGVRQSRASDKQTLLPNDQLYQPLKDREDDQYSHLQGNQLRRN
T4 sequence (P07766 23-207 limits assumed, chain 3 of 4): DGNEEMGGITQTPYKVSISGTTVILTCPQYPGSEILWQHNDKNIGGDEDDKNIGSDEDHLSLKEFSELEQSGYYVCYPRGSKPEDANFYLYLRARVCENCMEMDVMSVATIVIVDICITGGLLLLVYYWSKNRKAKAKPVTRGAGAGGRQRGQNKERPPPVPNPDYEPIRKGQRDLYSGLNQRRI
T4 sequence (P20963 22-164 limits assumed, chain 4 of 4): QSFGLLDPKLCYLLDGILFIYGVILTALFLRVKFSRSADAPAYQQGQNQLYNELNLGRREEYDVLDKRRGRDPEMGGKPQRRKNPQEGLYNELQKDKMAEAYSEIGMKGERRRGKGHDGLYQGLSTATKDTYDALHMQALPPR
Experimental: (§1) Binding of purified monovalent anti-TCR Nanobodies to human TCR(2IAN)/CD3 expressed on HEK293H cells was evaluated and compared with the binding to HEK293H cells transfected with human CD3 in flow cytometry, as outlined in Example 5. Dilution series of anti-TCR Nanobodies starting from 1 μM were applied to the cells. The parental HEK293H cell line was included as TCR/CD3 negative cell line.
Nanobodies clearly bound to human TCR(2IAN)/CD3 expressed on HEK293H but not to the HEK293H cells transfected with human CD3 only, nor to the HEK293H parental cell line. The EC50 values obtained from the dose response curve are depicted in Table C-2.

[7] = target: T1, soluble recombinant cynomolgus TCR …; assay: ELISA, coated soluble cynomolgus TCR-zipper
Experimental: Quality of the TCR α/β zipper proteins was assessed in an ELISA binding assay. Maxisorp 96-well ELISA plates (Nunc) were coated with 2 μg/mL soluble recombinant human TCR α/β (2XN9)-zipper protein or soluble recombinant cynomolgus TCR α/β-zipper protein. After an overnight incubation, plates were washed and blocked with PBS+1% casein for 1 h at room temperature. Next, plates were incubated with serial dilutions of either a functional flag tagged Nanobody or the functional mouse IgG anti-non-human primate/Rat TCRα/β antibody, clone R73 (eBioscience 16-5960) for 1 h at room temperature while shaking, washed again and incubated with mouse anti-flag-HRP (Sigma, #A8592) respectively rabbit anti-mouse-HRP (Dako, # P0260). After 1 h, TMB One Solution (Promega #G7431) was added. The reaction was stopped with 2M H₂SO₄ and the dose dependent binding was determined by measuring the OD at 450 nm using the Tecan sunrise 4 (FIG. 2).
Binding of purified monovalent anti-TCR Nanobodies to soluble recombinant cynomolgus TCR c/3 protein was evaluated in ELISA (as described in Example 1.2) using 2 μg/ml directly coated recombinant soluble cynomolgus TCR-α/β zipper protein.

[8] = target: T2, T cell receptor alpha/beta on purified …; assay: flow cytometry, purified primary human T cells
Experimental: Periplasmic extracts were screened for cell expressed TCR/CD3 binding using human TCR/CD3 transfected CHO-K1 or HEK293H cells and the respective CHO-K1 or HEK293H reference cell line in a mixed cell line setup. To this end, a large batch of the reference cell lines were labelled with 8 μM PKH26 and frozen. 5×10⁴ PKH labelled reference cells were mixed with 5×10⁴ target cells and incubated with periplasmic extracts for 30 min at 4′C, and washed 3 times. […] Samples were washed, resuspended in FACS Buffer (D-PBS from Gibco, with 10% FBS from Sigma and 0.05% sodium azide from Merck) and then analysed via a BD FACSArray. […] In this gate, 20,000 cells were counted during acquisition. Based on PKH26-SSC distribution, the PKH labelled parental population and the human TCR/CD3 unlabelled target population was selected. For these 2 populations the mean APC value was calculated.
Binding of purified monovalent anti-TCR Nanobodies to human TCR(2XN9)/CD3 expressed on CHO-K1 cells and to purified primary human T cells was evaluated in flow cytometry as outlined in Example 4.1.

[9] = target: T4, human CD3 expressed on HEK293H cells; assay: flow cytometry on HEK293H human CD3 cells, MCF
Experimental: as §1

Binder | IC50, xCELLigence human T cell mediated killing of LS174T cells, E:T 15, 30-40 h (EGFR on cells [1]) [nM] | IC50, xCELLigence human T cell mediated killing of LoVo cells, E:T 15, 30-40 h (EGFR on cells [1]) [nM] | IC50, xCELLigence human T cell mediated killing of HER14 cells, E:T 15, 50-60 h (EGFR on cells [2]) [nM] | IC50, xCELLigence human T cell mediated killing of LS174T cells, E:T 15, 50-60 h (EGFR on cells [2]) [nM] | IC50, xCELLigence human T cell mediated killing of LoVo cells, E:T 15, 50-60 h (EGFR on cells [2]) [nM] | EC50 (EGFR on cells [3]) [nM] | Top (EGFR on cells [3]) | EC50 (EGFR on cells [4]) [nM] | Top (EGFR on cells [4]) | EC50 (EGFR on cells [5]) [nM] | Top (EGFR on cells [5]) | MCF at 1 µM [6] [MCF] | EC50 [7] [nM] | EC50 [8] [nM] | binding result [9]
T017000110 (other, EGFR x irrelevant (anti-egg lysozyme) x TCR Nanobody construct; entry includes the FLAG3-HIS6 tag; also called EGFR038G07-35GS-cAbLys3(D1E,Q5V,A6E,Q108L)-35GS-T0170056G05-FLAG3-HIS6) EVQLVESGGGLVQAGGSLRLSCAASGRTFSSYVMGWFRQATGKEREFVATIAWDSGSTYYADSVKGRFTISRDNAKNTVHLQMNSLKPEDTAVYYCAASYNVYYNNYYYPISRDEYDYWGQGTLVTVSSGGGGSGGGGSGGGGSGGGGSGGGGSGGGGSGGGGSEVQLVESGGGSVQAGGSLRLSCAASGYTIGPYCMGWFRQAPGKEREGVAAINMGGGITYYADSVKGRFTISQDNAKNTVYLLMNSLEPEDTAIYYCAADSTIYASYYECGHGLSTGGYGYDSWGQGTLVTVSSGGGGSGGGGSGGGGSGGGGSGGGGSGGGGSGGGGSEVQLVESGGGLVQPGGSLRLSCVASGDVHKINFLGWYRQAPGKEREKVAHISIGDQTDYADSAKGRFTISRDESKNMVYLQMNSLKPEDTAVYFCRAFSRIYPYDYWGQGTLVTVSSGAADYKDHDGDYKDHDIDYKDDDDKGAAHHHHHH | 26 | 1.5 | 0.42 | 8.9 | 0.6 | 2.4 | 95900 | 7.3 | 165000 | 6.3 | 40800 |  |  |  | 
T0170068G05 (VHH, Monovalent anti-TCR Nanobody, cluster B; expressed in E. coli as triple Flag, His6-tagged protein; also called T0170PMP068G05; not shown: C-terminal triple Flag-His6 tag of the E. coli-made monovalent Nanobody) VHH: VQLVEESGGGLVQPGGSLRLSCITSGETFKINIWGWYRQAPGKQRELVASLTIGGATNYADSVKGRFTISEDSAKNTVYLQMNSLKPEDTAVYFCNAKSRIYPYDYWGRGTQVTVSS |  |  |  |  |  |  |  |  |  |  |  | 240 | 87 | > 100 | no binding (tested: 1e-6 M)
